# Results reported in patent US6713294B1, “DNA glycosylases and their use” (priority 1996, dated 2004).
# B1: N-methylpurine-DNA glycosylase: recombinant N-methylpurine-DNA glycosylase from mouse (protein, UniProt Q04841 1-333, looked up)
# DNA-3-methyladenine …: MPARGGSARPGRGALKPVSVTLLPDTEQPPFLGRARRPGNARAGSLVTGYHEVGQMPAPLSRKIGQKKQRLADSEQQQTPKERLLSTPGLRRSIYFSSPEDHSGRLGPEFFDQPAVTLARAFLGQVLVRRLADGTELRGRIVETEAYLGPEDEAAHSRGGRQTPRNRGMFMKPGTLYVYLIYGMYFCLNVSSQGAGACVLLRALEPLEGLETMRQLRNSLRKSTVGRSLKDRELCSGPSKLCQALAIDKSFDQRDLAQDDAVWLEHGPLESSSPAVVVAAARIGIGHAGEWTQKPLRFYVQGSPWVSVVDRVAEQMDQPQQTACSEGLLIVQK
# B2: AlkA: Escherichia coli inducible 3-methyladenine-DNA glycosylase II (protein, UniProt P04395 1-282, looked up)
# DNA-3-methyladenine …: MYTLNWQPPYDWSWMLGFLAARAVSSVETVADSYYARSLAVGEYRGVVTAIPDIARHTLHINLSAGLEPVAAECLAKMSRLFDLQCNPQIVNGALGRLGAARPGLRLPGCVDAFEQGVRAILGQLVSVAMAAKLTARVAQLYGERLDDFPEYICFPTPQRLAAADPQALKALGMPLKRAEALIHLANAALEGTLPMTIPGDVEQAMKTLQTFPGIGRWTANYFALRGWQAKDVFLPDDYLIKQRFPGMTPAQIRRYAERWKPWRSYALLHIWYTEGWQPDEA
# B3: FPG protein: formamido-pyrimidine-DNA glycosylase (protein, UniProt P05523 2-269, looked up)
# Formamidopyrimidine-DNA …: PELPEVETSRRGIEPHLVGATILHAVVRNGRLRWPVSEEIYRLSDQPVLSVQRRAKYLLLELPEGWIIIHLGMSGSLRILPEELPPEKHDHVDLVMSNGKVLRYTDPRRFGAWLWTKELEGHNVLTHLGPEPLSDDFNGEYLHQKCAKKKTAIKPWLMDNKLVVGVGNIYASESLFAAGIHPDRLASSLSLAECELLARVIKAVLLRSIEQGGTTLKDFLQSDGKPGYFAQELQVYGRKGEPCRVCGTPIVATKHAQRATFYCRQCQK
# What was measured:
# [1] = tested on: ^3H-uracil released in uracil-DNA glycosylase assays; assay: Uracil-DNA glycosylase activity after coupled transcription/translation in rabbit reticulocyte lysates; assay type: biochemical
# Experimental: In vitro transcription/translation was performed with the TNT® transcription/translation system with […] as recommended by the manufacturer, using 200 ng of the expression constructs per 10 μl reaction volume. The mouse UNG1-pBluescript® construct was transcribed from the T3 promoter in the pBluescript® vector. The insert of mouse UNG2-pBluescript® was amplified by the polymerase chain reaction using Dynazyme® PCR kit, ligated into the pGEM-T vector and transcribed from the T7 promoter. […] Human UNG1 CDNA was transcribed from the T7 promoter as previously described (Slupphaug et al., 1995, Biochemistry, 34, p128-138). The samples were run on a 12% denaturing sodium dodecyl sulfate polyacrylamide gel (SDS-PAGE). The gel was dried, autoradiographed overnight and scanned on an LKB Ultroscan XL Enhanced Laser Densitometer. Uracil-DNA glycosylase activity was measured in parallel samples of the in vitro transcription/translation assay mixture containing unlabelled amino acids (Slupphaug et al., 1995, supra). A construct containing both promoters (pGL2-ProAB) linked to the luciferase gene was prepared by insertion of a PvuII/MluI fragment (the enzymes cleave in positions 418 and 1035, respectively) from the promoter region of the UNG gene into the SmaI-MluI sites of pGL2-ProB. […]
# [2] = tested on: 3-methyladenine; conditions: Roy et al. (1994); cited from earlier work
# [3] = tested on: 7-methylguanine; conditions: Roy et al. (1994); cited from earlier work
# [4] = tested on: 3-methyladenine-DNA; conditions: Bjelland et al. (1994); cited from earlier work
# [5] = tested on: imidazole ring-opened form of 7-methylguanine-DNA substrate; conditions: Boiteux et al. (1990); cited from earlier work
molecule,measurement,setting,value
mouse UNG2: mouse homolog of human UNG2,dpm (^3H-uracil released),[1]; after subtraction of background of 123 dpm,856 dpm
same,"Activity (dpm/area), relative specific activity",[1]; translation in rabbit reticulocyte lysates,16784 dpm/area
B1,Kcat for excision of 3-methyladenine,[2],0.013 s⁻¹
same,Kcat for excision of 7-methylguanine,[3],0.00333 s⁻¹
B2,Turnover number on 3-methyladenine-DNA,[4],0.03 min⁻¹
B3,Kcat on imidazole ring-opened form of 7-methylguanine-DNA,[5],0.0233 s⁻¹
